The chains are these.
B1: Flag-CNK^2–549 [Drosophila] / V5-KSR [Drosophila] (parent)
chain 1: MSSNNNAPASAPDTGSTNANDPISGSLSVDSNLVIIQDMIDLSANHLEGLRTQCAISSTLTQQEIRCLESKLVRYFSELLLAKMRLNERIPANGLVPHTTGNELRQWLRVVGLSQGTLTACLARLTTLEQSLRLSDEEIRQLLADSPSQREEEELRRLTRAMQNLRKCMESLESGTAASNNDPEQWHWDSWDRPTHIHRGSVGNIGLGNNSTASPRTHHRQHGVKGKNSALANSTNFKSGRQSPSATEELNSTQGSQLTLTLTPSPPNSPFTPSSGLSSSLNGTPQRSRGTPPPARKHQTLLSQSHVQVDGEQLARNRLPTDPSPDSHSSTSSDIFVDPNTNASSGGSSSNVLMVPCSPGVGHVGMGHAIKHRFTKALGFMATCTLCQKQVFHRWMKCTDCKYICHKSCAPHVPPSCGLPREYVDEFRHIKEQGGYASLPHVHGAAKGSPLVKKSTLGKPLHQQHGDSSSPSSSCTSSTPSSPALFQQRERELDQAGSSSSANLLPTPSLGKHQPSQFNFPNVTVTSSGGSGGVSLISNEPVPEQFPTAPATANGGLDSLVSSSNGHMSSLIGSQTSNASTAATLTGSLVNSTTTTSTCSFFPRKLSTAGVDKRTPFTSEYTDTHKSNDSDKTVSLSGSASTDSDRTPVRVDSTEDGDSGQWRQNSISLKEWDIPYGDLLLLERIGQGRFGTVHRALWHGDVAVKLLNEDYLQDEHMLETFRSEVANFKNTRHENLVLFMGACMNPPYLAIVTSLCKGNTLYTYIHQRREKFAMNRTLLIAQQIAQGMGYLHAREIIHKDLRTKNIFIENGKVIITDFGLFSSTKLLYCDMGLGVPHNWLCYLAPELIRALQPEKPRGECLEFTPYSDVYSFGTVWYELICGEFTFKDQPAESIIWQVGRGMKQSLANLQSGRDVKDLLMLCWTYEKEHRPQFARLLSLLEHLPKKRLARSPSHPVNLSRSAESVF
chain 2: AYINIAEWTPDQVTDWIKGLDESMKGYLYEFSKQEIGGRALLNIRPYELENLGMLRIGHQEIVLEAVENLRNFHYHLKNDNLQFMALHVATAAKNLHRELARNHAESTKIDTRILHDITRTIATLKPLVGSLERTPFRKQEMYREYCGNVLKCGLELATIAHRDRFALQPVPAIRQSAERLENLANFVIQDISDPMVLQPASLNLVTLKKRESELGFNIESSYNGIHRVTDIKYNSPAHNSGKIEDGDEIVQINYQTVVGWQHRTVLEHLREALPDVVLTVKKRPKHTKMFGQIYMQPYRLPSKKRNMAARWAAQMPSPRAAFLTLDTEQLATGGTGSAVPDPSKSLSSEKREVLTKANPVSSASDSDSSCSDIPTPTDPKLAAREIRLYYPKPRALLQRRNTICGCEYLSLKNSDLVVPSWHERKPGIGSPTNCDPGSPSIRDKSISFGYGLEMAARPTTCIGIAGDTSTDKARRMFHEARKLKQLTEDSQREFLVDRYKPGVSKVVRFDAKEDYVMKNEKFICNVENTILETFEPIPFADEGDEDA
B2: GST-HYP [Drosophila] / Myc-MEK [Drosophila] (parent)
chain 1: MSKNKLNLVLPPVNTEATVAAATVAPTPPFKTPSGTDTHSLLGKPKTSIDALTETLEGLDMGDTERKRIKMFLSQKEKIGELSDEDLEKLGELGSGNGGVVMKVRHTHTHLIMARKLIHLEVKPAIKKQILRELKVLHECNFPHIVGFYGAFYSDGEISICMEYMDGGSLDLILKRAGRIPESILGRITLAVLKGLSYLRDNHAIIHRDVKPSNILVNSSGEIKICDFGVSGQLIDSMANSFVGTRSYMSPERLQGTHYSVQSDIWSLGLSLVEMAIGMYPIPPPNTATLESIFADNAEESGQPTDEPRAMAIFELLDYIVNEPPPKLEHKIFSTEFKDFVDICLKKQPDERADLKTLLSHPWIRKAELEEVDISGWVCKTMDLPPSTPKRNTSPN
chain 2: MGEETINSTQNKTRTKTTRPKAVYLWTVSDVLKWYRRHCGEYTQYEQLFAQHDITGRALLRITDSSLQRMGVTDNRDREAIWREIVKQRLKTDIMEIRDMERLNIY
B3: GST-HYP [Drosophila] / V5-KSR [Drosophila] (parent)
chain 1: B1 chain 1
chain 2: B2 chain 2
B4: Flag-CNK^2–549 [Drosophila] / Myc-MEK [Drosophila] (parent)
chain 1: B2 chain 1
chain 2: B1 chain 2

The first test covers variants of B1. The experiment in a line: GST pull-down, immunoblot quantification. The note with it: with V5-KSR [Drosophila], S2 cells, GST-HYP, Myc-MEK co-expressed, captured via GST-HYP, anti-V5 (KSR) blot, parent: 1. (A western blot detects proteins with antibodies after separation by electrophoresis.)
For the variant chain 2 L267R, the ratio to parent worked out at 0.89.

As to chain 2 A40F, the ratio to parent came to 0.93.

With chain 2 K109E, the ratio to parent turned out to be 0.92.

With chain 2 H263A, the ratio to parent is 0.9.

For the variant chain 2 K33D, the ratio to parent was found to be 0.95.

chain 2 R264E: the ratio to parent was 0.89.

For the variant chain 2 M196E, the ratio to parent is 0.62.

Turning to chain 2 T135F, the ratio to parent turned out to be 0.95.

In the next test the parent is B1. The experiment in a line: GST pull-down, immunoblot quantification. The note with it: with V5-KSR [Drosophila]; S2 cells; GST-HYP, Flag-CNK2–549 + RRKM co-expressed; captured via GST-HYP; anti-V5 (KSR) blot; parent: 1.
For chain 2 L151D, the ratio to parent is 0.14.

As for chain 2 I122D, the ratio to parent turned out to be 0.76.

Take chain 2 I122D L151D: the ratio to parent was 0.01.

The same test, now with this note: with V5-KSR [Drosophila]; S2 cells; GST-HYP + RRKM co-expressed; captured via GST-HYP; anti-V5 (KSR) blot; parent: 1.
Turning to chain 2 D80R, the ratio to parent turned out to be 0.61.

Regarding chain 2 A66F, the ratio to parent worked out at 0.97.

In the case of chain 2 E249R V251R, the ratio to parent was 0.08.

Take chain 2 K282D: the ratio to parent turned out to be 0.03.

In the case of chain 2 F73R E249R, the ratio to parent was found to be 0.16.

For the variant chain 2 A66F F73R, the ratio to parent was found to be 0.66.

chain 2 V251R: the ratio to parent was determined as 0.79.

As for chain 2 D80R K282D, the ratio to parent is 0.16.

As to chain 2 E249R, the ratio to parent turned out to be 0.82.

As to chain 2 F73R, the ratio to parent amounted to 0.87.

For the variant chain 2 F73R V251R, the ratio to parent stood at 0.72.

The test is the same for the next values; noted with them: with V5-KSR [Drosophila]; S2 cells; Flag-CNK2–549, V5-KSR, Myc-MEK, GST-HYP co-expressed; captured via GST-HYP; anti-V5 (KSR) blot; parent: 1.
In the case of chain 2 Q83E, the ratio to parent turned out to be 0.16.

As to chain 2 R98E, the ratio to parent stood at 0.81.

Consider chain 2 Y75R, for which the ratio to parent was 0.74.

In the case of chain 2 R45F, the ratio to parent turned out to be 0.99.

Take chain 2 N81W: the ratio to parent came to 0.07.

chain 2 N81E: the ratio to parent turned out to be 0.15.

As to chain 2 N95E, the ratio to parent was determined as 0.92.

Still in this test, the particulars now being: with V5-KSR [Drosophila], S2 cells, GST-HYP, Myc-MEK co-expressed, captured via GST-HYP, anti-V5 (KSR) blot, parent: 1.
As to chain 2 D194K V197E, the ratio to parent is 0.05.

With chain 2 D194K, the ratio to parent is 0.08.

Regarding chain 2 M196E, the ratio to parent turned out to be 0.49.

Turning to chain 2 Q199A, the ratio to parent was found to be 0.82.

For chain 2 V197E, the ratio to parent amounted to 0.07.

chain 2 S193A: the ratio to parent turned out to be 0.98.

The same test, now with this note: with V5-KSR [Drosophila]; S2 cells; GST-HYP + RRKM (Ha-RASV12, Pyo-RAF, V5-KSR, Myc-MEK) co-expressed; captured via GST-HYP; anti-V5 (KSR) blot; parent: 1.
As to chain 2 D194K, the ratio to parent is 0.04.

Take chain 2 M196E: the ratio to parent was found to be 0.26.

Regarding chain 2 Q199A, the ratio to parent was 0.73.

For chain 2 V197E, the ratio to parent was 0.03.

In the case of chain 2 S193A, the ratio to parent is 1.

The same test, now with this note: with Flag-CNK^2–549 [Drosophila]; S2 cells; Flag-CNK2–549, GST-HYP + RRM (Ha-RASV12, Pyo-RAF, Myc-MEK) co-expressed; captured via GST-HYP; anti-Myc (MEK) blot; parent: 1.
As to chain 1 K903D, the ratio to parent came to 0.04.

With chain 1 Y925D, the ratio to parent was found to be 0.07.

On to chain 1 E926R, for which the ratio to parent was determined as 1.23.

On to chain 1 M902D, for which the ratio to parent was 0.05.

Still in this test, the particulars now being: with Flag-CNK^2–549 [Drosophila]; S2 cells; Flag-CNK2–549, GST-HYP + RRM (Ha-RASV12, Pyo-RAF, Myc-MEK) co-expressed; captured via GST-HYP; anti-V5 (KSR) blot; parent: 1.
chain 1 K903D: the ratio to parent is 0.07.

As to chain 1 Y925D, the ratio to parent is 0.12.

For the variant chain 1 E926R, the ratio to parent stood at 1.07.

On to chain 1 M902D, for which the ratio to parent turned out to be 0.07.

The test is the same for the next values; noted with them: with Flag-CNK^2–549 [Drosophila]; S2 cells; Flag-CNK2–549, V5-KSR, Myc-MEK, GST-HYP co-expressed; captured via GST-HYP; anti-Myc (MEK) blot; parent: 1.
For chain 1 R913E, the ratio to parent was found to be 0.83.

The test is the same for the next values; noted with them: with Flag-CNK^2–549 [Drosophila]; S2 cells; Flag-CNK2–549, V5-KSR, Myc-MEK, GST-HYP co-expressed; captured via GST-HYP; anti-V5 (KSR) blot; parent: 1.
In the case of chain 1 R913E, the ratio to parent stood at 0.75.

Variants of B2 are the subject of a further test. Nature of the test: GST pull-down, immunoblot quantification. The note with it: with Myc-MEK [Drosophila]; S2 cells; GST-HYP, Flag-CNK2–549 + RRKM co-expressed; anti-Myc (MEK) blot; parent: 1.
On to chain 2 I97D, for which the ratio to parent is 0.68.

Regarding chain 2 L90D I97D, the ratio to parent is 0.04.

On to chain 2 L90D, for which the ratio to parent is 0.09.

Variants of B3 are the subject of a further test. Nature of the test: GST pull-down, immunoblot quantification. The note with it: with V5-KSR [Drosophila]; S2 cells; GST-HYP, Flag-CNK2–549 + RRKM co-expressed; anti-V5 (KSR) blot; parent: 1.
As to chain 2 L90D, the ratio to parent stood at 0.13.

In the case of chain 2 I97D, the ratio to parent came out at 0.62.

As for chain 2 L90D I97D, the ratio to parent was 0.05.

In another test the parent is B4. The experiment in a line: GST pull-down, immunoblot quantification. The note with it: with Myc-MEK [Drosophila]; S2 cells; GST-HYP + RRKM co-expressed; captured via GST-HYP; anti-Myc (MEK) blot; parent: 1.
As for chain 2 A66F, the ratio to parent came to 1.08.

For chain 2 F73R, the ratio to parent stood at 0.82.

chain 2 D80R: the ratio to parent came to 0.9.

Regarding chain 2 E249R, the ratio to parent was determined as 0.76.

For the variant chain 2 A66F F73R, the ratio to parent came to 0.48.

Take chain 2 F73R E249R: the ratio to parent was 0.13.

Take chain 2 E249R V251R: the ratio to parent is 0.06.

In the case of chain 2 K282D, the ratio to parent is 0.1.

In the case of chain 2 D80R K282D, the ratio to parent was found to be 0.34.

Turning to chain 2 F73R V251R, the ratio to parent is 0.5.

Consider chain 2 V251R, for which the ratio to parent came out at 0.78.

The same test, now with this note: with Myc-MEK [Drosophila]; S2 cells; GST-HYP, Flag-CNK2–549 + RRKM co-expressed; captured via GST-HYP; anti-Myc (MEK) blot; parent: 1.
chain 2 L151D: the ratio to parent is 0.05.

Take chain 2 I122D L151D: the ratio to parent was determined as 0.01.

For the variant chain 2 I122D, the ratio to parent is 0.77.

Staying with this test, now noted: with Myc-MEK [Drosophila]; S2 cells; GST-HYP, V5-KSR, Myc-MEK co-expressed; captured via GST-HYP; anti-MEK blot; parent: 1.
As to chain 2 D194K V197E, the ratio to parent came out at 0.02.

For the origin of these results see publication PMC11257983 (2024).
